These results are taken from patent US20150098990A1.

Test [1] addresses mouse dorsal root ganglion (DRG) neurons (surface proteins that the peptides bind are not identified) (mouse (C57BL/6)). Description: phage binding to cultured DRG neurons, anti-fd immunostaining, confocal microscopy.
Test [2] has the same target. Description: double staining of isolated DRG neurons incubated with DRG-p1 and GST-DRG3, antibodies against phage and GST.
For test [3] the target is unchanged. Description: synthetic peptide DRG2 at 10^-6 M; competitor phage DRG-p2 on cultured DRG neurons, anti-fd immunostaining.
Test [4] shares this target. As to the kind of experiment: synthetic peptide DRG2 at 10^-4 M; competitor phage DRG-p2 on cultured DRG neurons, anti-fd immunostaining.
The target is the same in test [5]. Description: synthetic peptide DRG3 at 10^-4 M; competitor phage DRG-p3 on cultured DRG neurons, anti-fd immunostaining.
Test [6] shares this target. Description: synthetic peptide DRG3 at 10^-6 M; competitor phage DRG-p3 on cultured DRG neurons, anti-fd immunostaining.
For test [7] the target is unchanged. Description: synthetic peptide DRG1 at 10^-6 M; competitor phage DRG-p1 on cultured DRG neurons, anti-fd immunostaining.
Test [8] has the same target. Description: synthetic peptide DRG1 at 10^-4 M; competitor phage DRG-p1 on cultured DRG neurons, anti-fd immunostaining.

In test [1], “phage clone DRG-p2 (M13 phage displaying the DRG2 peptide DGPWRKM on pIII)” returned a percent of DRG neurons bound of 43%.

In test [1], “phage clone DRG-p1 (M13 phage displaying the DRG1 peptide SPGARAF on pIII)” had a percent of DRG neurons bound of 38%. In addition, the percent of GST-DRG3-positive neurons with double positive staining in test [2] came out at 71%.

For the molecule “phage clone DRG-p3 (M13 phage displaying the DRG3 peptide FGQKASS on pIII)”, in test [1], the percent of DRG neurons bound worked out at 29%.

B1: synthetic peptide DRG2: DGPWRKM (peptide)
peptide: DGPWRKM
As to B1, the percent of anti-phage staining blocked in test [3] worked out at 54%; in test [4], 94%.

B2: synthetic peptide DRG3: FGQKASS (peptide)
peptide: FGQKASS
For B2, the percent of anti-phage staining blocked amounted to 94% in test [5] and 53% in test [6].

B3: synthetic peptide DRG1: SPGARAF (peptide)
peptide: SPGARAF
As for B3, the percent of anti-phage staining blocked in test [7] was found to be 47%; in test [8], 97%.
